Assay results from patent publication US9081017.

Target: TNFR2 (human, endogenous in kidney tissue and cultured EC) (human) (UniProt P20333)
Experiment: cell-based or functional assay

Chain of TNFR2 (human, endogenous in kidney tissue and cultured EC) (human) (P20333 23-461): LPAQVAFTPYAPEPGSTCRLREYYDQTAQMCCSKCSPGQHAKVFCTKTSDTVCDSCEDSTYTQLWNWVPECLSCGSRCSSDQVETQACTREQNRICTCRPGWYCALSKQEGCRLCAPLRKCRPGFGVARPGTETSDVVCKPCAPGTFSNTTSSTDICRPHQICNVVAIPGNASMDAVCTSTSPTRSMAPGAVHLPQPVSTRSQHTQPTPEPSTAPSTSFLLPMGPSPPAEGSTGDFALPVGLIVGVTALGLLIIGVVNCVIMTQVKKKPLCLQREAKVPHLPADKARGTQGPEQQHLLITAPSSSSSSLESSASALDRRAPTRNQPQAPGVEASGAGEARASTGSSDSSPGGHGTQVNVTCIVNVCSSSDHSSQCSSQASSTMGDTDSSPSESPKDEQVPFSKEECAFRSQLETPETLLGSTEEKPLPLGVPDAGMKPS

R2-TNF (TNF mutein D143N, A145R) (from UniProt P01375 77-233) (ligand)
Proliferative index (PI), percentage of PCNA-positive tubular cell nuclei, human kidney organ culture: 50%
